This is an account of results in US20240352080A1 (Seagen, published 2024).

For the experiment, the target named is T1, CD47 (UniProt Q08722 19-323, limits assumed).
T1 construct: whole, on cells; L540cy and SW780 are the cell lines named
Kind of experiment: saturation binding, flow cytometry on CD47-expressing L540cy cells. On the technique in general: Flow cytometry measures light scatter and fluorescence of single cells or particles in a stream.

B1: hB6H12.3 (unmasked parent) (antibody, V domains shown)
VH: EVQLLESGGGLVQPGGSLRLSCAASGFTFSGYGMSWVRQAPGKRLEWVATITSGGTYTYYPDSVKGRFTISRDNSKNTLYLQMNSLRAEDTAIYFCARSLAGNAMDYWGQGTLVTVSS
VL: EIVMTQSPDFQSVTPKEKVTLTCRASQTISDYLHWYQQKPDQSPKLLIKFASQSISGVPSRFSGSGSGSDFTLTINSLEAEDAATYYCQNGHGFPRTFGQGTKLEIKR
Take B1: a half-maximal effect (EC50) was put at 21 nM.
